# Data reported in IntAct's records for PubMed 19942853.
# B1: Cullin-associated NEDD8-dissociated protein 1 homolog (Saccharomyces cerevisiae), Q92325 (parent)
# chain: MSLHISKLIEQYRSTKDNDLKYMLLRQNFKINDIEDELAPLVNELLLPVLVEEQDMEILNLVSFQVLPDLVLSMISDPAAAQLGWVISLICDPLLNQSMIHANRSFVLIETLRNVLQKIENSPHLDYHQPVNSSLEFISKFIVEMKRHMCDVDAAQLSHSLSESNMLIYIESLNLLLKFSFFSDAASPSVMVTLPFDILNDVFTIAQDYSATNTNESIDRITEKLLLTSTQLTHPVDLENLCPKMKYNTLAAVSRIWYKFGPIVDKLFTNRLLPVLFPPQMGEECNVEDVLEIVHNFHPYFSIRRLKDNRPLLSDSTISQLREGLFGMLSILNDSLTRTQNENDHGSDNLIDSDDGFGSDNDPEQQAYLDELVSEGYDENMYDGDTDDEDADDINVEKNDEATKDITETNKILLIFSELHYPQEERFSELLVELQTKIAINTSLIDKILSKETTELPTHNGEIADLNEILNEVKGNKPIRKNVIFCTLAHTLSLQSGSELSVLQLSIEVIDHLLVKNHSNNITRGEQFQLIKLILPHLKTNKSFIDTLKAGNFTQKIDEGVTLRTMILSLLLQLFPLDYSMLGEILPTIARYSVRDKDLGVRDLSFQLLDQILRTYYNYLIGIDWEWYKDDFYQVLQETCIKKDINTNLLLQFPPYLPHD
# partner: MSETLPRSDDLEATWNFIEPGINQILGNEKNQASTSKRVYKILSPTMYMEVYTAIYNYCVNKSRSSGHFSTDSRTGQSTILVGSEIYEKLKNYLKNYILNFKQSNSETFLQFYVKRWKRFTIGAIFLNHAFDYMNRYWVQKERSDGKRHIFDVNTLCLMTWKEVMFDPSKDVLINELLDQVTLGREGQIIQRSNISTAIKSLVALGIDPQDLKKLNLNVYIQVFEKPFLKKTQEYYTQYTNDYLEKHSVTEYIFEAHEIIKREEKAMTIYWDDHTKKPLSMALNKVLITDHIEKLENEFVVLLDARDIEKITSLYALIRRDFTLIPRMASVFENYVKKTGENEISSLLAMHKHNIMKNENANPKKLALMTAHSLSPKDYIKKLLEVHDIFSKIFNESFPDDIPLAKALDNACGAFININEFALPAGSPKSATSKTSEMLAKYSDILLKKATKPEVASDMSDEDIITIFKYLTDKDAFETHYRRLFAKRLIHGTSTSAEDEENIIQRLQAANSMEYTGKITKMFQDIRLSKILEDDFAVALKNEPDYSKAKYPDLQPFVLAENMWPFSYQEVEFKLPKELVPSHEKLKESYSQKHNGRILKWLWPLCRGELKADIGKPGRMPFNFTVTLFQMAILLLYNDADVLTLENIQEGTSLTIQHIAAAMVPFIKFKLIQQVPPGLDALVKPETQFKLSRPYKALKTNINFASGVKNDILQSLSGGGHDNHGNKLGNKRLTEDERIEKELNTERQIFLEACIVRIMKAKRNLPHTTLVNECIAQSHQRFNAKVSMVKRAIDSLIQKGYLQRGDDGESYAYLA
# Variants of: B1
# Details: with cdc53_yeast CDC53, Q12018
row,effect of a mutation on the interaction,Variant
1,disrupting interaction,D17A
2,disrupting interaction,M23A

# More lines, now with the values behind:
row,Variant,effect of a mutation on the interaction
1,D19A,disrupting interaction
2,Y22A,disrupting interaction

# Variants of: B1
# Details: with cdc53_yeast CDC53, Q12018
# Remark: another data set of the same source
row,effect of a mutation on the interaction,Variant
1,decreasing interaction,G551A
2,decreasing interaction,N552A
